The source of these data is patent US20130303726.

This series has as its system MBP-SpC33Leu fusion protein.

On to enterokinase, for which the “cleavage of the fusion protein, MALDI-MS” value is “No detectable amounts of MBP-linker-SP-C33(Leu) were observed, suggesting that the applied proteolytic reaction conditions result in a quantitative process”.
